The values below come from US20070248609A1.

In this experiment the target is T1, Activin A (endogenous, mouse, released after LPS) (mouse) (UniProt Q04998).
T1 sequence (looked up): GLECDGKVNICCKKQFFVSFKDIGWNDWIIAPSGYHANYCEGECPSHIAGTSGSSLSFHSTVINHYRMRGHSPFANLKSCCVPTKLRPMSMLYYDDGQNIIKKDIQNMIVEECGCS
The experiment is described as follows: cell-based or functional assay.

For “Recombinant human follistatin-288 (from UniProt P19883 30-317)”, the IL-6 peak concentration in mice given 1 µg rhfollistatin-288 before LPS, against LPS alone was determined as 2 fold; the IL-6 release in mice given 0.5 µg follistatin before LPS (LPS alone ≈20000 pg/ml) was 30000 pg/mL; the IL-6 release in mice given 0.5 µg follistatin before LPS, against LPS alone amounted to 50%; the IL-6 release in mice given 1 µg follistatin before LPS (LPS alone ≈20000 pg/ml) is 50000 pg/mL. Moreover, the IL-6 release in mice given 1 µg follistatin before LPS, against LPS alone amounted to 250%; the IL-6 release in mice given 2 µg follistatin before LPS (LPS alone ≈20000 pg/ml) was 20000 pg/mL; the TNFα release in plasma of mice given 1 µg rhfollistatin-288 30 min before LPS (% suppression) was found to be 50.
